B1: anti-ANGPTL4 monoclonal antibody 1.10.2 (antibody, human IgG2, V domains shown)
VH: QVQLVQSGAEVKKPGASVKDSCKASGFTFTSYGISWVRQAPGQGLEWMGWISAYNGNKNYAQKLQGRVTMTTDTSTSTAYMELRSLRSDDTAVYYCARDDCSRASCSYYYGMDVWGQGTAVTVSS
VL: DIVMTQTPLSLAVTPGQPASISCKSSQSLLHSDRKTYLYWYLQKPGQPPQLLIYEVSNRFSGVPDRFSGSGSGTDFTLKISRVEAEDVGVYYCMQSIQLPWTFGQGTKVEIKR
B2: anti-ANGPTL4 monoclonal antibody 1.3.1 (antibody, part only; not given: light chain, human IgG2, V domains shown, part only)
VH: EVQLVESGGGLIQPGGSLRLSCAASGFTVSTNYMSWVRQAPGKGLDWVSIIYSDDNTYYADSVKGRFTISRDNSKNTLYLQMNSLRAEDSAVYYCAGTGTTDYYYGLDVWGLGTTVTVSSA
B3: anti-ANGPTL4 monoclonal antibody 1.7.3 (antibody, human IgG2, V domains shown)
VH: QVQLVESGGGVVQPGRSLRLSCAASGFTFSSYGIHWIRQAPGKGLEWVAVIWYDGSHKYYADSVKGRFTISRDNSKNTLYLQMNSLRAEDTAVYYCARDGITMVRGVLYYFYGMDVWGQGTTVTVSS
VL: DIQMTQSPSSLSASVGDRVTITCRASQGISNYLAWYQQKPGKVPKLLIYAASTLQSGVPSRFSGSGSGTDFTLTISSLQPEDFATYYCQEFNSAPLTFGGGTKVEIKR

Legend:
[1] = target: Angiopoietin-like protein 4 (ANGPTL4), recombinant V5-his tagged secreted product (UniProt Q9BY76); assay: SPR (BiaCore) low resolution, mAb captured on goat anti-human surface, ANGPTL4 at 292 nM, 25 C
[2] = target: Angiopoietin-like protein 4 (ANGPTL4), recombinant V5-his tagged secreted product (UniProt Q9BY76); assay: SPR (BiaCore 2000) medium resolution, mAb captured on goat anti-human surface, ANGPTL4 6-198 nM (593 nM left out of the fit), 1:1 model with mass transport

Binder	Kd [1] [nM]	koff [1] [s⁻¹]	kon [1] [M⁻¹ s⁻¹]	Kd [2] [nM]	koff [2] [s⁻¹]	kon [2] [M⁻¹ s⁻¹]
B1	11	0.00068	63000			
B2	15	0.00071	49000			
B3	16	0.0011	67000	7.9	0.000786	99800
